According to article PMC10783506:

Legend:
[1] = test system: LGP2 (insect-cell expressed) (Homo sapiens); test: fluorescence polarization; settings: Buffer A: 50 mM MOPS pH 7.4, 5 mM MgCl2, 5 mM DTT, 0.05 mM BSA, 0.01% Tween20, 0-100 mM NaCl (or KCl), with or without ATP, EMSA at 4 C, stopped-flow at 25 C …
[2] = test system: RIG-I; test: EMSA; settings: 60 nM protein, 20 nM RNA, monovalent streptavidin; mainly monomer; m7G cap and 2'-O-methyl on first nucleotide (Cap1); biotin at distal end; Buffer A: 50 mM MOPS pH 7.4, 5 mM MgCl2, 5 mM DTT, 0.05 mM BSA, 0.01% Tween20; 0-100 mM NaCl (or KCl), with or without ATP; EMSA at 4 C, stopped-flow at 25 C …

Substance: 3'-overhang HP RNA
- binding signal (fold Kd vs 5'OH blunt HP) ([1]; 100 mM KCl): 10

Substance: 5'OH blunt HP RNA
- Kd ([1]; 5'OH): 10 nM

Substance: 5'ppp blunt HP RNA
- Kd ([1]; 5'ppp): 10 nM

Substance: Cap1 ds27 RNA-biotin
- binding signal [2]: 50 % RNA bound

Substance: ds16 DNA
- Kd ([1]; 0 mM NaCl, ATP had little effect on Kd): 200 nM

Substance: stem ds26 RNA
- Kd ([1]; 0 mM NaCl, ATP without effect, 17 bp dsRNA flanked by 4 bp dsDNA ends): 80 nM
